Results taken from patent US11732027B2, “Protease-activated receptor-2 modulators” (Oasis Pharmaceuticals, LLC, priority 2015, dated 2023).
Numbered stars: 1 amine (or outer) side, 2 acyl side, 3 side chain; on linkers, the order of the positions; unused ones are H or OH. Square brackets hold non-standard residues; d marks the D form. * marks the point of attachment. εLys = N[C@@H](CCCCN[*:1])C(=O)[*:2]; Palmitoyl = CCCCCCCCCCCCCCCC(=O)*; Cit = NC(=O)NCCC[C@H](N)C(=O)O; Ahx = NCCCCCC(=O)O; βAla = NCCC(=O)O

Tests used:
PAR2 = molecular target: T1, PAR2 (Homo sapiens, UniProt P55085); assay: Calcium flux assay, antagonist activity against SLIGRL in SW620 cells endogenously expressing PAR2; assay type: cell-based; settings: 1 min pretreatment, 8 μM SLIGRL agonist
T1 construct: SW620 human colon adenocarcinoma cells that endogenously express PAR2; endogenous in cells; host or cells: SW620 human colon adenocarcinoma cells
T1 sequence (P55085 26-397): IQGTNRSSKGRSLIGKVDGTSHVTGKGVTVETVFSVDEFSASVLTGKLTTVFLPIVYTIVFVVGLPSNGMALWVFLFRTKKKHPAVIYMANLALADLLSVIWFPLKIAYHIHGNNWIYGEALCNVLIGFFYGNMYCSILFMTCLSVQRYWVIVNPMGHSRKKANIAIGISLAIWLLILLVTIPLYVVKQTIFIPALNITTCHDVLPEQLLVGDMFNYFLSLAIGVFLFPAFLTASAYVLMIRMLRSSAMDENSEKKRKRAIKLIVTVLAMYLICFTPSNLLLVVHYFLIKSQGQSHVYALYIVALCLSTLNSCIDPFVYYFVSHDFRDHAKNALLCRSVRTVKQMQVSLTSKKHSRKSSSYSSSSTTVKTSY
Procedure: Table 2 provides the antagonist activity for the resulting palmitoylated peptides (SEQ ID NO: 1-11, 13-41, and 70) of Table 1. Table 2 also provides the antagonist activity for the resulting myristoylated peptide SEQ ID NO: 12 of Table 1. Antagonist activity of the peptides were measured using calcium flux assays with SW620 human colon adenocarcinoma cells that endogenously express PAR2. The calcium signal of […] SLIGRL (SEQ ID NO: 73) following 1 min pretreatment with 3 μM or 10 μM of palmitoylated peptides. Final concentration of DMSO vehicle was 0.2%. Antagonist activity of 3 μM and 10 μM peptides against 8 μM SLIGRL (SEQ ID NO: 73; a known PAR2 agonist) was measured by maximal calcium flux. Experiments were repeated at least 2-3 times each and gave similar results.

db/db mouse = assay: Obese-diabetic (db/db) mouse model, daily SC treatment for 3 weeks; assay type: in vivo; settings: db/db mice, 10 mg/kg SC daily, over 3 weeks
Procedure: FIGS. 1A to 1B. Male obese-diabetic (db/db) mice, 6-8 weeks of age were purchase from Charles River Labs. The db/db mouse is a […] animal which serves as a model for diabetes, obesity and dyslipidemia. Animals were randomized according to blood glucose and body weight on day −2 and were allowed to eat a normal chow diet ad libitum. Treatment was initiated from day 0 with mice receiving daily subcutaneous (SC) injections (5 mL/kg) at 7-10 AM. HbA1c was monitored on days 0, 7, 14 and 21. Mice (n=10) were treated daily with either 10 mg/kg N-palmitoylated-SEQ70 (PZ-235) or vehicle (“Veh”). […] HbA1c levels reflect long-term blood glucose levels. […]
FIG. 2. Diabetic mice from the experiment in FIGS. 1A and 1B had their morning blood glucose measured thrice weekly.
FIG. 3. Diabetic mice had their blood glucose profile monitored on days 1, 8 and 22. […]
FIGS. 5A to 5B. Diabetic mice had their plasma triglyceride levels measured at baseline and after 3 weeks of treatment with PZ-235 versus vehicle.
FIG. 6. Diabetic mice had their liver triglyceride levels measured after 3 weeks of treatment with PZ-235 versus vehicle. At termination of the 3 week experiment, livers were isolated from the diabetic mice, snap frozen and liver triglycerides measured.

Compound | Max (% Inh), maximal calcium flux (PAR2; 3 uM peptide) | Max (% Inh), maximal calcium flux (PAR2; 10 uM peptide) | food intake versus vehicle group (db/db mouse) | weight gain versus vehicle group (db/db mouse)
36 (GDENSEKKRKQAIKL) [compound 36] | 65% | 65% |  | 
25 (AMDENSEKKYKSAIKL) [compound 25] | 23% | 29% |  | 
5 (AIDENSEKKFKSAIKL) [compound 5] | 18% | 32% |  | 
4 (RSSAIDENSEKKRKSAIK) [compound 4] | 24% | 82% |  | 
37 (GDENSEKKRKQAIKLI) [compound 37] | 0% | 65% |  | 
32 (PGDENSEKPKRKQAIK) [compound 32] |  | 93% |  | 
17 (Palmitoyl-[Ahx]LHHDSEPKR[dK]SAIK[dV]-NH2) [compound 17] | 10% | 66% |  | 
1 (GHENSEKKRKQAIK) [compound 1] | 33% | 85% |  | 
CCCCCCCCCCCCCCCC(=O)N[C@@H](CCCNC(=N)N)C(=O)N[C@@H](CO)C(=O)N[C@@H](CO)C(=O)N[C@@H](C)C(=O)N[C@@H](CCSC)C(=O)N[C@@H](CC(=O)O)C(=O)N[C@@H](CCC(=O)O)C(=O)N[C@@H](CC(N)=O)C(=O)N[C@@H](CO)C(=O)N[C@@H](CCC(=O)O)C(=O)N[C@@H](CCCCN)C(=O)N[C@@H](CCCCN)C(=O)N[C@@H](CCCNC(=N)N)C(=O)N[C@@H](CCCCN)C(=O)N[C@@H](CO)C(=O)N[C@@H](C)C(=O)N[C@H](C(=O)N[C@@H](CCCCN)C(N)=O)[C@@H](C)CC [SEQ ID NO 70] |  |  | did not vary significantly | did not vary significantly
41 (MDENSEKKRKRAIK) [compound 41] | 38% | 65% |  | 
33 (GPDENSEKKPRKQAIK) [compound 33] | 23% | 93% |  | 
3 (DSEKKRKQAIKLI) [compound 3] | 49% | 89% |  | 
34 (Palmitoyl-GDENSEKK[Cit]KQAIK-NH2) [compound 34] | 23% | 93% |  | 
30 (GLDENSEPKRKSAIKLI) [compound 30] | 6% | 0% |  | 
38 (GDENSEKKRKQAIK) [compound 38] | 23% | 65% |  | 
39 (GDENSEKRWLWAIK) [compound 39] | 23% | 93% |  | 
40 (GDENSEKKRKWAIK) [compound 40] | 38% | 93% |  | 
31 (GDENHEKKRKQAIK) [compound 31] | 38% | 65% |  | 
2 (GDHNSEKKRKQAIK) [compound 2] | 23% | 78% |  | 

The next lines start with the values.

Max (% Inh), maximal calcium flux (PAR2; 3 uM peptide) | Max (% Inh), maximal calcium flux (PAR2; 10 uM peptide) | food intake versus vehicle group (db/db mouse) | weight gain versus vehicle group (db/db mouse) | Compound
8% | 26% |  |  | 14 (Pal-[εLys]LDENSEKKF[dK]SAIKL[dV]-NH2) [compound 14]
17% | 86% |  |  | 20 (Pal-[εLys]AIDENSEKKFKSAIKL-NH2) [compound 20]
23% | 65% |  |  | 35 (Pal-GDENSEKKRKSAIK[dA]-NH2) [compound 35]
50% | 84% |  |  | 7 (Pal-AIHHDSE[dP]KRKSAIKL-NH2) [compound 7]
75% | 95% |  |  | 9 (Pal-GLHHDSEPKRKSAIKL[dI]-NH2) [compound 9]
16% | 18% |  |  | 8 (Pal-AIHHDSE[dP]RKSAAKL-NH2) [compound 8]
17% | 60% |  |  | 16 (Pal-GLHHDSEPKR[dK][βAla]IK[dV]-NH2) [compound 16]
31% | 95% |  |  | 11 (Pal-PLHHDSEPKR[dK]SAIK[dL]-NH2) [compound 11]
